Measurements taken from US11254720B2, “Methods and systems for designing and/or characterizing soluble lipidated ligand agents” (Tufts Medical Center, priority 2013, dated 2022).

What was measured:
CCK2R = biological target: T1, CCK2R (Homo sapiens, UniProt P32239); assay: SRE-luciferase agonist assay in transfected HEK293 cells; assay type: cell-based; details: tethered ligand cDNA cotransfected, 24 hours
T1 construct: expressed in transfected cells; host or cells: HEK293
T1 sequence (P32239 1-447): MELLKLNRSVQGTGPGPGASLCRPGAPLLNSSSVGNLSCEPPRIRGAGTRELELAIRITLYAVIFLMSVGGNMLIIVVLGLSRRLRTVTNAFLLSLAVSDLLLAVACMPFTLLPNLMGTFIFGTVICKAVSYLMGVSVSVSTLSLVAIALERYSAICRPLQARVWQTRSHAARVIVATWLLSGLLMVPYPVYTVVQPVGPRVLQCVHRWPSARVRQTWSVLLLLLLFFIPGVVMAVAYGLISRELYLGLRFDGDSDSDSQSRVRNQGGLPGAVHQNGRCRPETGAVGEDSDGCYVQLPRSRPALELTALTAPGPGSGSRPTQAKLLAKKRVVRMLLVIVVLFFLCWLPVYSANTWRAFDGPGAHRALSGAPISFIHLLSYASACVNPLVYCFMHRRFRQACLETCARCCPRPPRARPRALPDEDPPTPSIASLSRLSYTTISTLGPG
Experimental: (§1) A) Tethered CCK4-Gly activates the CCK2 receptor (left panel). Potency of the corresponding soluble lipidated ligand agent (1-CCK4-Gly) exceeds that of soluble CCK-4-Gly (right panel). […] HEK293 cells were transiently cotransfected with cDNAs encoding: the designated CCK receptor subtype, a 5X-SRE-Luc-pest reporter gene (pGL4.33), tethered ligand (as indicated) and a β-galactosidase gene to control for transfection efficiency. Tethered ligand activity was measured 24 hours following transfection. To assess activity of soluble and lipidated CCK-4-Gly, cells were stimulated for 4 hours with ligand. Both soluble and tethered ligand activity was quantified relative to a parallel preparation of CCK receptor expressing cells stimulated for 4 hours with soluble amidated CCK-4 (s-CCK4-NH2, 10 μM) for CCK-2R and soluble amidated CCK-8 (s-CCK8-NH2, 10 μM) for CCK-1R.
(§2) Neurokinin receptors were purchased from the Missouri S+T cDNA Resource center. […] The nucleotide sequences of all receptor coding regions and tethered ligands were confirmed by automated DNA sequencing and analyzed using Vector NTI software (Invitrogen).

CCK1R = biological target: T2, CCK1R (Homo sapiens, UniProt P32238); assay: as above; assay type: cell-based; details: tethered ligand cDNA cotransfected, 24 hours
T2 construct: expressed in transfected cells; host or cells: HEK293
T2 sequence (P32238 1-428): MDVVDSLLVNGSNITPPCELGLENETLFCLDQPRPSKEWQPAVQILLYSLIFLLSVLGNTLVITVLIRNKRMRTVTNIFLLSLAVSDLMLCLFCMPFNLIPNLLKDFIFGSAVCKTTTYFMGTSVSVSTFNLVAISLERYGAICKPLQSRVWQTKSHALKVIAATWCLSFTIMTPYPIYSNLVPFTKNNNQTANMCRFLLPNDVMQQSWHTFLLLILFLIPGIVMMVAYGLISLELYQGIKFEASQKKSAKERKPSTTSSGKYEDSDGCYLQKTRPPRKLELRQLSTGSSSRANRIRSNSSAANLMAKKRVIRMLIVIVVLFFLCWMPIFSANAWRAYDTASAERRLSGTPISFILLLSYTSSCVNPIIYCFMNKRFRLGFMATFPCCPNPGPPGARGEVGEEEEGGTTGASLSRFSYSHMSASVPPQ
Experimental: as §1, §2

tCCK4-Gly: membrane-tethered glycine extended CCK4 (WMDFG) (chain (part 1 of 2) MSTSMIRDVELAEEALPKKTGGPQGSRRCLFSLFIVAGATTLFCLLHFGVI; left off: small tags and cut ends)
Activity of membrane-tethered ligand at CCK2R (CCK2R): activated the CCK2R in a concentration dependent manner
Activity of membrane-tethered ligand at CCK1R (CCK1R): no activity
